Assay: soluble on expression in E. coli; label from the status in PepcDB or PDB records

Row | Sequence | soluble on expression in E. coli
1 | MKQLYWYTCGEGDCDLVLLHGWGLNSGVWHCIIDRLAPHFRLHLVDLPGYGRSQDYGAMSLADMAERVAQQAPKQALWLGWSMGGLVASQIALSQPECVRGLITVSSSPCFTARDEWPGIKPEVLAGFQHQLSDDFHRTVERFLALQTLGTESSRQDARLLKSVVLQHQMPDVEVLTGGLAILRTADLRTALAGFTLPFMRVYGHLDSLVPRKVASLLDSAWPQTQSVVMQGAAHAPFISHPNDFAKLILNFAEENKK | not soluble
2 | MGSDKIHHHHHHMKHYALLISFLALSACSQGSEDLNEWMAQTRREAKAEIIPFQAPTLPVAPVYSPPQLTGPNAFDFRRMETDKKGENAPDTKRIKETLEKFSLENMRYVGILKSGQKVSGFIEAEGYVYTVGVGNYLGQNYGRIESITDDSIVLNELIEDSTGNWVSRKAELLLNSSDKNTEQAAAPAAEQN | not soluble
3 | YFQSMEAEDFECSSHCSELSWRQNEQRRQGLFCDITLCFGGAGGREFRAHRSVLAAATEYFTPLLSGQFSESRSGRVEMRKWSSEPGPEPDTVEAVIEYMYTGRIRVSTGSVHEVLELADRFLLIRLKEFCGEFLKKKLHLSNCVAIHSLAHMYTLSQLALKAADMIRRNFHKVIQDEEFYTLPFHLIRDWLSDLEITVDSEEVLFETVLKWVQRNAEERERYFEELFKLLRLSQMKPTYLTRHVKPERLVANNEVCVKLVADAVERHALRAENIQSGT | soluble
4 | MSLADTIIKNAKIVDVYNARIIEGTLAIADSRFLGIDAAYTADNVINAHGQYVVPGLIDPHIHIESANVSPAVFGSLVTPHGTTTILADPHEIVNVAGMRGLEYMVASAKNTALDIKYTMPSCVPAANPTLETSGAVITADEIKQSYDQGLTYGLAEFMNYPGVVNADDGVLDELLVSLNARKMIDGHSPALHGQGLNAYAAAGVHNDHECTQVDEMLDRISRGMYVYLRYGTVSKNMPTLLKGVTPQNARFCCLCGDDLQSVTLRETGHLDESIRVAIQNGIDPLTAIQMATINTAQCTGLSDRGGIAPGLKADFLLVDDLEHFNVNQTFIDGQKIAANGAYLLPTDDSVAGFDDLLETVHLDNFSADQLKLNLTSDKAHVIGLQSISRTQNLVLPVAHDAEGDFHYKPSEDIVKVAVVERHHLTGNVGVGLLSGFGLQNGAIATSIGHDSHNLVVVGTNDADMVVAIDALKACQGGGVAVQNGQVIATLPFVIGGLMSTEPIDSLIAHQKAFNTICHEQLNVTAQFDPIMKLGAMPLDVIPNLRITDKGLVDVTKFEIIDINAEGHHHHHH | soluble
5 | MNKTLIAAAVAGIVLLASNAQAQTVPEGYQLQQVLMMSRHNLRAPLANNGSVLEQSTPNKWPEWDVPGGQLTTKGGVLEVYMGHYMREWLAEQGMVKSGECPPPYTVYAYANSLQRTVATAQFFITGAFPGCDIPVHHQEKMGTMDPTFNPVITDDSAAFSEQAVAAMEKELSKLQLTDSYQLLEKIVNYKDSPACKEKQQCSLVDGKNTFSAKYQQEPGVSGPLKVGNSLVDAFTLQYYEGFPMDQVAWGEIKSDQQWKVLSKLKNGYQDSLFTSPEVARNVAKPLVSYIDKALVTDRTSAPKITVLVGHDSNIASLLTALDFKPYQLHDQNERTPIGGKIVFQRWHDSKANRDLMKIEYVYQSAEQLRNADALTLQAPAQRVTLELSGCPIDADGFCPMDKFDSVLNEAVK | soluble
6 | RMNLFDLGTHHALVDYAHNPAGYEAVGAFVKNWPGERIGVVGGPGDRRDEDLILLGRIAAAVFDRIIVKEDDDKRGRHAGEVADLIRQGIQEENPNCQYETILDEQRALNVALDEAPQEALVVIFPES | not soluble
7 | MTTIPVTSIAAEPAVSCSTCAACCCQLEVMLITDTGVPERFIDTDDWGGEVMRRLDDGWCAALDRDSMRCSIYELRPLICREFELGEADCLSERRGIATAYRLEHHHHHH | not soluble
8 | MGSDKIHHHHHHMKDEILIRYINKHCTATEEKEILEWLKEKDNRQRLFELEQIWGLKAEMRFSDKGRMDEAYRQLSRQLGLSGQIEKREKPIQRFTVREWWKYAAVLVAVCLFATNLFYITKEEPEAYNTVVVPKGQRVSLLLSDGTTVWLNAESRFSYPAKFSEKYRTVTLEGEGYFEVAHNPKCPFTVKLPMLNIRVLGTKFNAKAYLDEPSWITLKEGSVEVSTLDDRSKERMSPNDQVYYTVSDGLVLIRNSAQANVDSWTTGDLRFDNKTLKEMAKVIERRYDVKIRIMDSSLVEEYFTCHFRKDLTIAQAMELLKETRRVDYRIEKKTVYLYKK | not soluble
9 | MMKQGMANSISMTWQLLCDEHGFTREHYNQLKKFSPETLREIIAEIASCHPSTSVLLRNKWLTPPEDILEQITREYERRIQNCPPFRSEKEAESWLNELSFAVIAPLYRVAPEQTEQVESFVLQLIAEQERVWELILTNDGYSWHCALYDILFHLVLRNMEDQPEHQKQRITKIFYEPDARLVAEEIKFRIQSLYDDEQKRALSELVNDFTSKE | soluble
10 | MSTAFAIPLFQFSPKPLHWKKRIAMWKAEIMDIKTTETGSRGEYSATIDGHKAQMTYSRTSPSLIIIDHTGVPDALRGKGVGQALAAHAIDEARKGGWKIIPLCPFFKAQTLRHADWADVIQGLEHHHHHH | soluble
11 | MAHHHHHHSLIDLHIHSNYSDGQGSVEEIARRAKERGLKAIAIVDHSIELPFGLTEKKARMREIEIENAASLYGIKIYSGIECSINAAGEIVLPDFDFDFIIASVHEFVYGQAYYERVIRCLESHDVDVLGHPFSPLFGFDGRLAEMDEKLLDVVEERGVAVELNSSHKSPQDEFLQLCRDRKIAYSIGSDAHSLSGVGEVGWSVEKAKRYMAGAKLFTPEG | not soluble
12 | MSLTTITLRSAELFDVYLTFRQPMQTAISILSKRRTTILRLTDQEGRIGYGEGVAFETPWYTAETQDSLRALSPLLYRLLAAAPLSSPAAVAARFQPIKGNQMAKAMFDGAVHELFAQAEQTSLAAYLGGDENRSIPCGKALGRSSAEQTVEAVGQALNDGFERIKLKLAPTDTAVLEQVRKSFPGAPLMFDANGSFQVADLPLLQEWDTFSMLMMEQPFPADDWLSHQHAASLLKTPLCLDESIQTTQDALLMRTLQAGQIINIKPARLGGLTAALDVRSISPSYWLGGMFESGIGRRQTLAFATLPGLAYPIDMSGTDQYFIEDLLEQDYIVENGSIRYAEHSVSQERLERLAVSTKKLEGHHHHHH | soluble
13 | MAKYSEQFKLTVVKAYLAGNIGFRKVSSQFSIDSSLLRRWVANYKSHGHTGHRKPGLRYSEAFKRSVLEHKREHGLSLRQTAAHFGIGDPGQIVIWEQQHYSNDLAPYVPKRRKSVAMPKKPYPTAPVIDDDTQKTRDQLMAELEYLRMENAYLKKLEELKEQQRRQKKKPLEHHHHHH | soluble
14 | MKTMRKILEIDEERCNGCGLCVLDCAEGAIAIVDGKAKIVSDSFCDGLGACIGSCPQDALHIIEREAVPFDEEAAMEHVRSQGGTPEANHGHGHGAGTPHRHGQSAEHGGHGRIPGHGGCPGAAMRRFDSAESPAFAVAEGTVKGPGHWPLKIRLVPPTAPFLKGADVLVAADCAAAASPIFHSHFAAGKVVLIGCPKFDDTEAYAERLADILRVSGIASLTVLRMEVPCCRGLSAAAEKARVLSGTSLVLKEVIMTCAGGPAAPAPLSSL | soluble
15 | MGSDKIHHHHHHSCDDDGYSIGDIGWDWATVRATGGGGYYLEGDRWGMIDPVASSIPWYKPVDGERVVAFFNPLADTDKGAQVKIEGIQEVLTKEVEDMTAENEEEFGNDPIVIYQGDMWLGGKFLNIIFHQYLPRSEKHRISLVQNKIEPEAPETPEALNVDEDGYIHLELRYNTYDDVTGYRGWGRVSYNLEEFYPTAKDAAETEFKGFKVTINSKENGEGRVIVLDLDHPVGVPEKAKDVHSTSFVK | not soluble
16 | MANSSRRTTAFSEAEKAAVYRALLTRRDIRHFRPDPIPEEVLERLYQAFHAAPSVGLTQPWAIVEIRERATKERVFALHQEARARERALFQGKAQRVYDRLRLEGLLEAPLHLAVFQRPVARSLGHHTMPETLAYSVVLAVGNLWTAARAEGIGVGWVSILEPEAVARLLGAPPDYRLLAYLCLGYPRAWPDEPLLERAGWRQREPLLRYRERFP | soluble
17 | MGSDKIHHHHHHMSPNNFDTDVCIVGGGPTGTLLAVLLGQKGHRVTILEKWPTFYERPRAVTFDHEIARILGYIGIDSENDEAIDYHSDSYDWKNAAGETLLEVDWTSMTDSGWRTRYWFYQPELEKRLRDLALTMDFVDIRCGFTAVGLSQDENSAIIHGIVTDTPENIPADAQREDIRAKYVIGADGANSFVRNSLGLEMNDLGYFFDWLILDLKPTQDIDYGTDHWQLCDPKRPTTIVPGGPGRRRWEFMALPGEDLKELASEESAWNLLEPWDVTPGKAILERSAVYRFQARWAQEWRSGRALIAGDAAHLMPPFAGEGMCAGLRDSLALAWRLDLVLSGKSDDALLDTYGEERREHVHYYIDFSMDLGNVICITDEDEARLRDERMIKELEAQDGVPVNTDVAHLGPGIWDKDSSHGGELAKQGIVEYQGRKARFDDAVGRGWAVLGLNTDPREVLDEDSLVALDAIGAIVESVGDATSAVLDVEGLYTRWLKEAGATFIITRPDFYVYSTAVDAEQLQTQIKQLSDLLHLNSVVGA | not soluble
18 | MSAEQFVGRWKLVESENFEDYLKEVGVGLLLRKAACAAKPTLEIKVNGNKWHVNQLSTFKNTTLEFTLGVEFDETTPDGRQFKSTITIEDGKVVHVQKRIKDSDHDSVITRWFEGEKLITTLQSGSVISRRAYIRE | not soluble
19 | MSLAPQRCHRFQSSAYRSNQWRYRGRCDSIQFAVDRRVFIAGLGLYGSSSGKAEYSVKIELKRLGVVLAQNLTKFMSDGSSNTFPVWFEHPVQVEQDTFYTASAVLDGSELSYFGQEGMTEVQCGKVAFQFQCSSDSTNGTGVQGGQIPELIFYAEGHHHHHH | soluble
20 | MSLRDAKTWFTDTVLKDQNGRELRFYSDVLKDKVVMLNVIFTHCTDACPLITRKLREVREAMGPALAAQVTFVSISSDPLNDTPEALKAFAAKQGVDGPNWLFLTGDKANVDLVLGRIGQFLPSPEQHSTQLIAGDVAGKRWSKIRPDAPPAAIAQRMQLLTQPLAGREGHHHHHH | soluble
21 | MKKDLISVVMSAYNSEKFISDSISSILDQTYENWELIIINDASSDNTLKIVNQFSEKDPRIKVIDNENNLGLTISLNIGINNSKGEFIARLDSDDFAEPSRLEKELDHLHAYPEAGLVGSGAHLINSSGNKIGSMNVMSQPYFVNRFLINLNPFIHSSIMVRKKALDNVGSYREKFRYSQDYDLILRLSDKYKLSNIALPLIRWRVSDSSVTMQHHTLQRIYADIAREFAIERRNSGHDSYESTEFDTLIHEMRIRNQGRYLCDHGVYDLLFNKKYKEGCSELIKGISKGGFPYNSFYRGITQVISKVNIQLEHHHHHH | not soluble
22 | SSWKPRSQQPDAPLGTGANRDLELPWLEQQGPASHHRRQLGPQGPPHLVADPSKKQGPWLEEEEEAYGWMDFGRRSAEDEN | soluble
23 | SIPALHRLVTVNMIPDASNDNIMVMRSYQIQATREILQRMKEMEASGLVQKEGGYIWHTTGSGKTVTSFKVAQLLASAPRIKNVLFIVDRIDLIDQTLENFKSFAYAHFKNRIKKVNGRELKRELKRKGSSQILLISVQGLTKAVKKGLENDDWNVIIMDEAHRSASGESVKLIKKALKKTTWFGFTGTPN | not soluble
24 | MGSDKIHHHHHHMTSICICDDEKQQRNMLNKIITREMDLWGYPYQIKEYSNGESLVYNLEHENYYIDIIFLDIELGKSNGVDIAKTIRKHSKDTIIIFVTGFSDYVFHGYDVGALNYILKPYKTEKICKVLKEALKKLEQWKENFITVQIGTNLCKINTKDILYFKSELRKLTVVTFDKTLEYYGKLNDMETVLPSNFIRTHQRYIVNLNHVDSITQTYAKVQNEKIPISRKKYQEVVGKFTRYMLES | not soluble

— the DeepSol protein solubility set
